# Reference: patent publication US20250090676A1 (SUTRO BIOPHARMA, published 2025)
# B1: SRP1848-A01 (antibody, V domains shown)
# VH: EVQLVESGGGLVQPGGSLRLSCAASGFNITRYSIHWVRQAPGKGLEWVAGILPESGGTSYADSVKGRFTISADTSKNTAYLQMNSLRAEDTAVYYCARHIYPWDWFSNYVLDYWGQGTLVTVSS
# VL: not shown
# notes: IgG with common trastuzumab LC, cell-free expressed, HIS- and FLAG-tagged; also called Antibody 1
# B2: SRP1848-A02 (antibody, V domains shown)
# VH: EVQLVESGGGLVQPGGSLRLSCAASGFNISGFRIHWVRQAPGKGLEWVAGIYPESGATYYADSVKGRFTISADTSKNTAYLQMNSLRAEDTAVYYCARHLYVWDWVLDHVLDYWGQGTLVTVSS
# VL: not shown
# notes: IgG with common trastuzumab LC, cell-free expressed, HIS- and FLAG-tagged; also called Antibody 2
# B3: SRP1848-F04 (antibody, V domains shown)
# VH: EVQLVESGGGLVQPGGSLRLSCAASGFNISNYSIHWVRQAPGKGLEWVGEIYPIDGITDYADSVKGRFTISADTSKNTAYLQMNSLRAEDTAVYYCARGSWFWRSGYGYYLDYWGQGTLVTVSS
# VL: not shown
# notes: IgG with common trastuzumab LC, cell-free expressed, HIS- and FLAG-tagged; also called Antibody 39
# B4: SRP1848-A04 (antibody, V domains shown)
# VH: EVQLVESGGGLVQPGGSLRLSCAASGFNIDQSSIHWVRQAPGKGLEWVGVIYPVDGTTDYADSVKGRFTISADTSKNTAYLQMNSLRAEDTAVYYCARGAWSWRSGYGYYIDYWGQGTLVTVSS
# VL: not shown
# notes: IgG with common trastuzumab LC, cell-free expressed, HIS- and FLAG-tagged; also called Antibody 3
# B5: SRP1848-A06 (antibody, V domains shown)
# VH: EVQLVESGGGLVQPGGSLRLSCAASGFNIGNSYIHWVRQAPGKGLEWVGGITPIDGNTDYADSVKGRFTISADTSKNTAYLQMNSLRAEDTAVYYCARGAWSWRSGYGYYIDYWGQGTLVTVSS
# VL: not shown
# notes: IgG with common trastuzumab LC, cell-free expressed, HIS- and FLAG-tagged; also called Antibody 4
# B6: SRP1848-A07 (antibody, V domains shown)
# VH: EVQLVESGGGLVQPGGSLRLSCAASGFNIGYHSIHWVRQAPGKGLEWVGEIFPVDGTTDYADSVKGRFTISADTSKNTAYLHMNSLRAEDTAVYYCARGFWAWRSGYGYYLDYWGQGTLVTVSS
# VL: not shown
# notes: IgG with common trastuzumab LC, cell-free expressed, HIS- and FLAG-tagged; also called Antibody 5
# B7: SRP1848-A08 (antibody, V domains shown)
# VH: EVQLVESGGGLVQPGGSLRLSCAASGSNIRKHSIHWVRQAPGKGLEWVGSIYPNDGTTDYADSVKGRFTISADTSKNTAYLQMNSLRAEDTAVYYCARGSWFWRAGYGYYLDYWGQGTLVTVSS
# VL: not shown
# notes: IgG with common trastuzumab LC, cell-free expressed, HIS- and FLAG-tagged; also called Antibody 6
# B8: SRP1848-A09 (antibody, V domains shown)
# VH: EVQLVESGGGLVQPGGSLRLSCAASGFNIRKQSIHWVRQAPGKGLEWVGSIFPNDGTTDYADSVKGRFTISADTSKNTAYLQVNSLRAEDTAVYYCARGSWFWRSGYGYFLEYWGQGTLVTVSS
# VL: not shown
# notes: IgG with common trastuzumab LC, cell-free expressed, HIS- and FLAG-tagged; also called Antibody 7
# B9: SRP1848-A10 (antibody, V domains shown)
# VH: EVQLVESGGGLVQPGGSLRLSCAASGFNIRKYSIHWARQAPGKGLEWVGDIFPIDDITDYADSVKGRFTISADTSKNTAYLQMNSLRAEDTAVYYCARGSWSWPSGHSYYLDYWGQGTLVTVSS
# VL: not shown
# notes: IgG with common trastuzumab LC, cell-free expressed, HIS- and FLAG-tagged; also called Antibody 8
# B10: SRP1848-B01 (antibody, V domains shown)
# VH: EVQLVESGGGLVQPGGSLRLSCAASGFNIRNYSIHWVRQAPGKGLEWVGEIYPVDGITDYADSVKGRFTISADTSKNTAYLQMNSLRAEDTAVYYCARGFWSWPSGYSYFLDYWGQGTLVTVSS
# VL: not shown
# notes: IgG with common trastuzumab LC, cell-free expressed, HIS- and FLAG-tagged; also called Antibody 9
# B11: SRP1848-B03 (antibody, V domains shown)
# VH: EVQLVESGGGLVQPGGSLRLSCAASGFNISMKYIHWVRQAPGKGLEWVGGITPIDGMTDYADSVKGRFTISADTSKNTAYLQMNSLRAEDTAVYYCARGSWSWPSGYSYYLDYWGQGTLVTVSS
# VL: not shown
# notes: IgG with common trastuzumab LC, cell-free expressed, HIS- and FLAG-tagged; also called Antibody 10
# B12: SRP1848-B04 (antibody, V domains shown)
# VH: EVQLVESGGGLVQPGGSLRLSCAASSFNISNHSIHWVRQAPGKGLEWVGEIYPVDGITDYADSVKGRFTISADTSKNTAYLQMNSLRAEDTAVYYCARGRYSWRAGYSYYLDYWGQGTLVTVSS
# VL: not shown
# notes: IgG with common trastuzumab LC, cell-free expressed, HIS- and FLAG-tagged; also called Antibody 11
# Target: T1, human FOLR1-HIS (human, UniProt P15328 25-233)
# T1 construct: Analyte of the Biacore assay; also called FolRα-ECD; extracellular domain of FOLR1; not shown: HIS tag
# Test: SPR (Biacore), antibody captured on anti-Fc, human FOLR1-HIS analyte, 25 C
# T1 sequence (P15328 25-233 limits assumed): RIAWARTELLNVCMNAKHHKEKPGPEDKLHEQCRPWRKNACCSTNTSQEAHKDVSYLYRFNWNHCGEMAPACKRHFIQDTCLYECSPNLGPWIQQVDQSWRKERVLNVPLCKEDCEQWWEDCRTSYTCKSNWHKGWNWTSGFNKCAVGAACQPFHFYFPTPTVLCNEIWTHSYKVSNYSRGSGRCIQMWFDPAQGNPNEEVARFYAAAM
Binder,Kd,koff,kon
B1,1.87 nM,0.00155 s⁻¹,829000 M⁻¹ s⁻¹
B2,16.8 nM,0.00882 s⁻¹,525000 M⁻¹ s⁻¹
B3,1.32 nM,0.00108 s⁻¹,815000 M⁻¹ s⁻¹
B4,2.03 nM,0.00326 s⁻¹,1.61e+06 M⁻¹ s⁻¹
B5,3.51 nM,,
B6,0.855 nM,0.000866 s⁻¹,1.01e+06 M⁻¹ s⁻¹
B7,2.42 nM,0.00119 s⁻¹,493000 M⁻¹ s⁻¹
B8,1.82 nM,,
B9,2.74 nM,0.0033 s⁻¹,1.2e+06 M⁻¹ s⁻¹
B10,3.67 nM,0.00416 s⁻¹,1.13e+06 M⁻¹ s⁻¹
B11,7.63 nM,0.00859 s⁻¹,1.13e+06 M⁻¹ s⁻¹
B12,1.5 nM,0.00117 s⁻¹,780000 M⁻¹ s⁻¹
